According to patent US7504234B2, “Assays for S-adenosylmethionine (AdoMet)-dependent methyltransferase activity” (The Regents of the University of Michigan, priority 2006, dated 2009):

T1: hSET8 (Homo sapiens, UniProt Q9NQR1)
T1 construct: A construct of hSET8 encoding residues 191-352 was cloned into the parallel expression vector pHIS2; hexahistidine tag with TEV cleavage site (pHIS2 vector) (N); made in house; host or cells: Escherichia coli BL21 (DE3) Codon Plus RIL
T1 sequence (Q9NQR1 191-352 isoform Q9NQR1-2): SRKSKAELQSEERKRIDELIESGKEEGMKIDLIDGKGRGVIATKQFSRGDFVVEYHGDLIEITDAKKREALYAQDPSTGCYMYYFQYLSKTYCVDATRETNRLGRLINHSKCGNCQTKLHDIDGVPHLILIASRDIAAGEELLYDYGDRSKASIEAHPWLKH


Experiments:
hSET8 = target: T1, hSET8; assay: isothermal titration calorimetry, wild-type and mutant histone H4 peptides with hSET8; format: binding; details: ITC; for histone H4 binding / affinity of hSET8 for mutant histone H4 peptide: 20° C., pH 7.0, saturating AdoHcy; for AdoHcy binding: hSET8 with His-18 mutant H4 peptide
Protocol: The equilibrium dissociation constants of wild type and mutants of hSET8 and histone H4 were determined using a VP-ITC calorimeter (MicroCal, LLC). […] A saturating concentration of AdoHcy (1.0-2.0 mM) was used in all titrations. ITC data were subsequently analyzed using Origin 7.0 (OriginLab Corp.) with blank injections of ligand into buffer subtracted from the experimental titrations prior to data analysis.

Lys-20 in histone H4 = assay: MALDI mass spectrometry of methyltransferase reactions (product specificity); format: biochemical
Protocol: Histone methyltransferase assays were performed with wildtype hSET8 and the Tyr-245 and Tyr-334 mutants (5 μM) as described above and were quenched after 15 min or 24 h by the addition of 0.5% trifluoroacetic acid. Aliquots of the samples were cocrystallized with α-cyano-4-hydroxycinnamic acid (1:1), applied on the target, and dried at room temperature. The mass spectra were acquired on the TofSpec 2E MALDI-TOF mass spectrometer (Waters, Inc.) in reflectron mode, with each spectrum representing the average of 50 laser shots. Close external calibration was used based on the following mixture: bradikinin fragment 1-8, m/z=904.41 (for [M+H]+); angiotensin II, m/z=1046.54; [Glul]-fibrinopeptide B, m/z=1570.68; ACTH (clip 18-39), m/z=2465.20.

their cognate substrates = details: radiometric assay, literature values; cited from earlier work

Molecule	histone H4 binding / affinity of hSET8 for mutant histone H4 peptide (hSET8)	AdoHcy binding (hSET8)	turnover number (their cognate substrates) [s⁻¹]	other results
wild-type hSET8: construct of hSET8 encoding residues 191-352, catalytic SET domain (protein, UniProt Q9NQR1 191-352, looked up, fragment) AAIAKQALKKPIKGKQAPRKKAQGKTQQNRKLTDFYPVRRSSRKSKAELQSEERKRIDELIESGKEEGMKIDLIDGKGRGVIATKQFSRGDFVVEYHGDLIEITDAKKREALYAQDPSTGCYMYYFQYLSKTYCVDATRETNRLGRLINHSKCGNCQTKLHD				methylation state of Lys-20 after reaction with the H4 peptide (Lys-20 in histone H4; 24 h): complete conversion to monomethyl-Lys-20; product specificity (Lys-20 in histone H4; MALDI mass spectrometry): bona fide histone H4 Lys-20 monomethylase
Drosophila SU(VAR)3-9: H3 Lys-9-specific histone methyltransferase (protein, UniProt P45975 1-635, looked up) Histone-lysine …: MATAEAQIGVNRNLQKQDLSNLDVSKLTPLSPEVISRQATINIGTIGHVAHGKSTVVKAISGVQTVRFKNELERNITIKLERLSEKKIKNLLTSKQQRQQYEIKQRSMLRHLAELRRHSRFRRLCTKPASSSMPASTSSVDRRTTRRSTSQTSLSPSNSSGYGSVFGCEEHDVDKIPSLNGFAKLKRRRSSCVGAPTPNSKRSKNNMGVIAKRPPKGEYVVERIECVEMDQYQPVFFVKWLGYHDSENTWESLANVADCAEMEKFVERHQQLYETYIAKITTELEKQLEALPLMENITVAEVDAYEPLNLQIDLILLAQYRAAGSRSQREPQKIGERALKSMQIKRAQFVRRKQLADLALFEKRMNHVEKPSPPIRVENNIDLDTIDSNFMYIHDNIIGKDVPKPEAGIVGCKCTEDTEECTASTKCCARFAGELFAYERSTRRLRLRPGSAIYECNSRCSCDSSCSNRLVQHGRQVPLVLFKTANGSGWGVRAATALRKGEFVCEYIGEIITSDEANERGKAYDDNGRTYLFDLDYNTAQDSEYTIDAANYGNISHFINHSCDPNLAVFPCWIEHLNVALPHLVFFTLRPIKAGEELSFDYIRADNEDVPYENLSTAVRVECRCGRDNCRKVLF			0.11	
mouse G9A: histone H3 Lys-9/27 methyltransferase (protein, UniProt Q9Z148 1-1263, looked up) Histone-lysine …: MRGLPRGRGLMRARGRGRAAPTGGRGRGRGGAHRGRGRPRSLLSLPRAQASWAPQLPAGLTGPPVPCLPSQGEAPAEMGALLLEKEPRGAAERVHSSLGDTPQSEETLPKANPDSLEPAGPSSPASVTVTVGDEGADTPVGAASLIGDEPESLEGDGGRIVLGHATKSFPSSPSKGGACPSRAKMSMTGAGKSPPSVQSLAMRLLSMPGAQGAATAGPEPSPATTAAQEGQPKVHRARKTMSKPSNGQPPIPEKRPPEVQHFRMSDDMHLGKVTSDVAKRRKLNSGSLSEDLGSAGGSGDIILEKGEPRPLEEWETVVGDDFSLYYDAYSVDERVDSDSKSEVEALAEQLSEEEEEEEEEEEEEEEEEEEEEEEEEDEESGNQSDRSGSSGRRKAKKKWRKDSPWVKPSRKRRKREPPRAKEPRGVNGVGSSGPSEYMEVPLGSLELPSEGTLSPNHAGVSNDTSSLETERGFEELPLCSCRMEAPKIDRISERAGHKCMATESVDGELLGCNAAILKRETMRPSSRVALMVLCEAHRARMVKHHCCPGCGYFCTAGTFLECHPDFRVAHRFHKACVSQLNGMVFCPHCGEDASEAQEVTIPRGDGGTPPIGTAAPALPPLAHDAPGRADTSQPSARMRGHGEPRRPPCDPLADTIDSSGPSLTLPNGGCLSAVGLPPGPGREALEKALVIQESERRKKLRFHPRQLYLSVKQGELQKVILMLLDNLDPNFQSDQQSKRTPLHAAAQKGSVEICHVLLQAGANINAVDKQQRTPLMEAVVNNHLEVARYMVQLGGCVYSKEEDGSTCLHHAAKIGNLEMVSLLLSTGQVDVNAQDSGGWTPIIWAAEHKHIDVIRMLLTRGADVTLTDNEENICLHWASFTGSAAIAEVLLNAQCDLHAVNYHGDTPLHIAARESYHDCVLLFLSRGANPELRNKEGDTAWDLTPERSDVWFALQLNRKLRLGVGNRAVRTEKIICRDVARGYENVPIPCVNGVDGEPCPEDYKYISENCETSTMNIDRNITHLQHCTCVDDCSSSNCLCGQLSIRCWYDKDGRLLQEFNKIEPPLIFECNQACSCWRSCKNRVVQSGIKVRLQLYRTAKMGWGVRALQTIPQGTFICEYVGELISDAEADVREDDSYLFDLDNKDGEVYCIDARYYGNISRFINHLCDPNIIPVRVFMLHQDLRFPRIAFFSSRDIRTGEELGFDYGDRFWDIKSKYFTCQCGSEKCKHSAEAIALEQSRLARLDPHPELLPDLSSLPPINT			0.024	
human SET7/9: human histone H3 Lys-4-specific methyltransferase (protein, UniProt Q8WTS6 1-366, looked up) Histone-lysine …: MDSDDEMVEEAVEGHLDDDGLPHGFCTVTYSSTDRFEGNFVHGEKNGRGKFFFFDGSTLEGYYVDDALQGQGVYTYEDGGVLQGTYVDGELNGPAQEYDTDGRLIFKGQYKDNIRHGVCWIYYPDGGSLVGEVNEDGEMTGEKIAYVYPDERTALYGKFIDGEMIEGKLATLMSTEEGRPHFELMPGNSVYHFDKSTSSCISTNALLPDPYESERVYVAESLISSAGEGLFSKVAVGPNTVMSFYNGVRITHQEVDSRDWALNGNTLSLDEETVIDVPEPYNHVSKYCASLGHKANHSFTPNCIYDMFVHPRFGPIKCIRTLRAVEADEELTVAYGYDHSPPGKSGPEAPEWYQVELKAFQATQQK			0.004	

The next lines start with results.

histone H4 binding / affinity of hSET8 for mutant histone H4 peptide (hSET8)	AdoHcy binding (hSET8)	Molecule	turnover number (their cognate substrates) [s⁻¹]	other results
modestly affects the affinity	severely abrogate AdoHcy binding	H18F: histone H4 peptide (residues 15-24) with His-18 mutated to phenylalanine (Ac-AKRFRKVLRD-NH2; UniProt P62805 16-25, looked up, variant H18F)		histone H4 binding / affinity of hSET8 for mutant histone H4 peptide (hSET8; listed as His-18 to phenylalanine): does not impact the affinity to nearly the same extent as the H347F substitution
completely abolishes binding	severely abrogate AdoHcy binding	H18A: histone H4 peptide (residues 15-24) with His-18 mutated to alanine (Ac-AKRARKVLRD-NH2; UniProt P62805 16-25, looked up, variant H18A)		histone H4 binding / affinity of hSET8 for mutant histone H4 peptide (hSET8; listed as His-18 to alanine): completely abolishes both histone H4 binding and methylation
